This note sets out measurements from US6995249, “Nucleic acid capable of binding specifically to Ras target protein” (Japan Science and Technology Corporation).

The labels stand for the following.
B1: clone 21.01 (ssRNA)
RNA: GGGAGAUCAGAAUAAACGCUCAACUGAUCAAUGGCGUACAAUGGAUUCGUUCUCAUAACCAAAACCCUUACCCCUUGGACUGAUUCGACAUGAGGCCCCUGCAGGGCG
B2: clone 21.07 (ssRNA)
RNA: GGGAGAUCAGAAUAAACGCUCAAUUGACUCAAUGGCGUACAAUGGAUUCGUUCUCAUAACCAAAACCCUUACCCCUUGGACUGUUCGACAUGAGGCCCCUGCAGGGCG
B3: RNA aptamer SEQ ID NO:25 (ssRNA)
RNA: GGGAGUGGAGGAAUUCAUCGAGGCAUAUGUCGACUCCGUCUUCCUUCAAACCAGUUAUAAAUUGGUUUUAGCAUAUGCCUUAGCGACAGCAAGCUUCUGC
B4: RNA aptamer SEQ ID NO:28 (3'-truncated) (ssRNA)
RNA: GGGAGUGGAGGAAUUCAUCGAGGCAUAUGUCGACUCCGUCUUCCUUCAAACCAGUUAUAAAUUGGUUUUAGCAUAUGCCU
B5: RNA aptamer SEQ ID NO:26 (ssRNA)
RNA: GGGAGUGGAGGAAUUCAUCGAGGCAUGACCUCCCGUGGCAGUAGGGGUAAAAAUUAUCUUCCUACACUUCUCAUGCCUUAGCGACAGCAAGCUUCUGC
B6: clone 21.12 (ssRNA)
RNA: GGGAGAUCAGAAUAAACGCUCAAGCGACAAGCAGCAGAUAAAGUUGAGCGCAACGCCGCUACAGAACCAAAUUAACAUGUAUGUUCGACAUGAGGCCCCUGCAGGGCG
B7: clone 21.06 (ssRNA)
RNA: GGGAGAUCAGAAUAAACGCUCAACUGAUCAAUGGCGUACAAUGGAUUCGUUCUCAUAACCAAAACCCUUACCCCUUGGACUGUUUCGACAUGAGGCCCCUGCAGGGCG
B8: clone 21.03 (ssRNA)
RNA: GGGAGAUCAGAAUAAACGCUCAACUGAUCAAUGGCGUACAAUGGAUUCGUUCUCAUAACCAAAACCCUUACCCCUUGGACUGCUUCGACAUGAGGCCCCUGCAGGGCG
B9: clone 21.05 (ssRNA)
RNA: GGGAGAUCAGAAUAAACGCUCAACUGAUCAAUGGCGUACAAUGGAUUCGUUCUCAUAACCAAAACCCUUACUCCUUGGACUGCUUCGACAUGAGGCCCCUGCAGGGCG
B10: clone 21.04 (ssRNA)
RNA: GGGAGAUCAGAAUAAACGCUCAACUGAUCAAUGGCGUACAAUGGAUUCGCUCUCAUAACCAAAACCCUUACCCCUUGGACUGCUUCGACAUGAGGCCCCUGCAGGGCG
B11: clone 21.02 (ssRNA)
RNA: GGGAGAUCAGAAUAAACGCUCAACUGAUCAAUGGCGUACAAUGGAUUCGUUCUCAUAACCAAAACCCUUACCCCUGGACUGAUUCGACAUGAGGCCCCUGCAGGGCG
B12: clone 21.08 (ssRNA)
RNA: GGGAGAUCAGAAUAAACGCUCAAUUGAAGAUCGUACAAUGGAUUCGAUCAUAACCCGAAGUUUUUAAACACUCUUUACCUGUAUUCGACAUGAGGCCCCUGCAGGGCG

One data set concerns the target T1, Raf-1 RBD (GST-RBD) (UniProt P04049 P04049:51-131). The experiment in a line: filter; group 1; value only in figure; PBS + 5 mM MgCl2, 37 C. The conditions noted are these: tags: GST fusion, expressed in E. coli; label: 32P. The procedure: The interaction between the 10 RNAs among them and GST-RBD was examined by a binding assay using a nitrocellulose filter.
(§1) An RNA (4 nM) of which the 5'-terminus was labeled and 50 to 1,250 nM of GST-RBD were incubated in 600 µl of a binding buffer at 37° C. for 30 minutes. The culture was filtered with a nitrocellulose filter, and the radioactivity on the filter was measured. The Kd value was calculated using a software: Kalleider Graph (Bell, S. D., et al., (1998) J. Biol. Chem. 273, 14309–14314).
With B1, the binding result is reported as “binds”.

Take B2: the binding result is recorded as “binds”.

The next data set deals with T1, Raf-1 RBD (GST-RBD). The experiment in a line: filter; PBS + 5 mM MgCl2, 37 C. The conditions noted are these: tags: GST fusion, expressed in E. coli; label: 5'-32P. The procedure:
as §1
A word on the Kd: it is the concentration at which binding is half-saturated. On to B3, for which the Kd was determined as 124 nM.

With B4, the Kd amounted to 176 nM.

For the molecule B5, the Kd amounted to 295 nM.

The target of a further data set is T1, Raf-1 RBD (GST-RBD). Description: filter; scarcely bound; no inhibition of Ras binding at 12.5 uM. The conditions noted are these: tags: GST fusion, expressed in E. coli; label: 32P.
Turning to B6, the binding result is listed as “no binding”.

The target of another data set is T1, Raf-1 RBD (GST-RBD). The experiment in a line: filter; group 1; percent bound only in figure. The conditions noted are these: tags: GST fusion, expressed in E. coli; label: 32P.
Take B7: the binding result is given as “binds”.

With B8, the binding result is recorded as “binds”.

On to B9, for which the binding result was “binds”.

As for B10, the binding result was “binds”.

As to B11, the binding result is reported as “binds”.

Regarding B12, the binding result was “binds”.
